# Source: article PMC5552852, “Structural basis for Ccd1 auto-inhibition in the Wnt pathway through homomerization of the DIX domain” (Scientific Reports, 2017)
# B1: zebrafish Coiled-coil-DIX1 (zCcd1) DIX domain [zebrafish] / itself (parent)
# chain: AAASTKVLYYTDRSLTPFLVNIPKRLGDVTLQDFKAAVDRHGSFRYHFKSLDPEFGTVKEEVFQDDAVIPGWEGKIVAWVEED
# Variants of: B1
# Assay: gel filtration
# Conditions: with itself; read off a plot
row,screen value,Variant
1,80 mL,chain 1 Y10F
